This assay deals with T1, PDZ2 domain of human tyrosine phosphatase 1E (hPTP1E) (human, UniProt Q12923 1361-1456).
T1 construct: PDZ2 domain of human tyrosine phosphatase 1E (hPTP1E); Uniformly 15N- or 15N,13C-enriched for NMR; also called apo PDZ2; holo PDZ2; source: E. coli BL21 (DE3), purified (Ni-NTA, tag cleaved with HRV-3C protease, second Ni-NTA pass); not shown: polyhistidine, N-terminal, cleaved
T1 sequence: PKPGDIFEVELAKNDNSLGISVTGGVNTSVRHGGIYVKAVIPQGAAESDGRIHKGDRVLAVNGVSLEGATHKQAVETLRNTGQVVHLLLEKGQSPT
As to the kind of experiment: NMR titration; [1H,15N]-HSQC of uniformly 15N-enriched PDZ2, free and with the peptide in twofold excess; 298 K; 150 mM sodium chloride, 50 mM phosphate buffer pH 6.8; chemical shift perturbation. The conditions noted are these: both partners purified.

B1: C-terminal eight-residue peptide derived from the Ras-associated guanine nucleotide exchange factor 2 (RA-GEF2) (peptide)
peptide: Ac-ENEQVSAV-OH
notes: the eight C-terminal residues of Ras-associated / Rap guanine nucleotide exchange factor 2 (RA-GEF2); also called RA-GEF2 peptide; source: synthetic peptide, bought: BACHEM
In the case of B1, the binding result is “binds”.

Values taken from article PMC9584909, “Atomic resolution protein allostery from the multi-state structure of a PDZ domain” (Nature Communications, 2022).
